Test results published in patent US11324803B2, “Methods and compositions for treatment of Gaucher Disease via modulation of C5a receptor” (Children's Hospital Medical Center, priority 2015, dated 2022).

Key:
C5aR1 [1] = target: T1, C5aR1 (Homo sapiens, UniProt P21730); experiment: GC-IC-induced CCL18 and pro-inflammatory cytokine production in CBE-treated human MΦ-like cell line U937 with C5aRA; assay type: cell-based; parameters: endogenous in cells; host or cells: U937 (human macrophage-like cell line), CBE-treated
T1 sequence (P21730 1-350): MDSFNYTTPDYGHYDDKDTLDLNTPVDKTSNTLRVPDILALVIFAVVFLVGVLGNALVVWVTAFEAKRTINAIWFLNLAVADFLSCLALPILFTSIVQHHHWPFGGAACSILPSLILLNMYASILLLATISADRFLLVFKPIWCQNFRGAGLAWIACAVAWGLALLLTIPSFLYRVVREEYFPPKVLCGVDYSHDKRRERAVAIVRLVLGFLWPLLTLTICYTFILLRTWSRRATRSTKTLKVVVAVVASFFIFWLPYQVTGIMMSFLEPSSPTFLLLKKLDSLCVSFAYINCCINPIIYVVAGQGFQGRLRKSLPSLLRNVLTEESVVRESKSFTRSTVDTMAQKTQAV

C5aR1 [2] = target: T1, C5aR1; conditions: cited from earlier work
[3] = test system: C5a-induced effector functions; conditions: cited from earlier work
human C5aR2 (C5L2) = human C5aR2 (C5L2) (Homo sapiens, UniProt Q9P296); conditions: cited from earlier work
Chain of human C5aR2 (C5L2) (Q9P296 whole entry): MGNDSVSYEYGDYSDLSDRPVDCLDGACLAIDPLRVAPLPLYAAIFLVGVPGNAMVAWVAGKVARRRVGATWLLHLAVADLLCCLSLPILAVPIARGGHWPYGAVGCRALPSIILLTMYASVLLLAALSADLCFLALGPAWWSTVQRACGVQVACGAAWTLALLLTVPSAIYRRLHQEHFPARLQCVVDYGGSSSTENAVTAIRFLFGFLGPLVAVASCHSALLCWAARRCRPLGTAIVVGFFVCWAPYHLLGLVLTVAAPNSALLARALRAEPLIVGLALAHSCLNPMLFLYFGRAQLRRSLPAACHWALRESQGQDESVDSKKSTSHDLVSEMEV

[4] = CBE-treated U937 cells, GC-IC stimulation, ELISA

B1: Thr Leu Gln Lys Lys Ile Glu Glu Ile Ala Ala Lys Tyr Lys His Ser Val Val Lys Lys Cys Cys Tyr Asp Gly Ala Ala Val Asn Asn Asp Glu Thr Cys Glu Gln Arg Ala Ala Arg Ile Ser Leu Gly Pro Arg Cys Ile Lys Ala … (protein)
chain: TLQKKIEEIAAKYKHSVVKKCCYDGAAVNNDETCEQRAARISLGPRCIKAFTECCVVASQLRANISFKRS
modifications: mutant C5a-(1-66, Cys27A1a) -A8B-Del. 71-73 of human C5a
notes: positions 27 and 68-71 of human C5a mutated and positions 72-74 deleted
GC-IC-induced production of CCL18 (C5aR1 [1]; [4]): abolished | GC-IC-induced production of IL1β (C5aR1 [1]; [4]): abolished | GC-IC-induced production of IL6 (C5aR1 [1]; [4]): abolished | GC-IC-induced production of IL23 (C5aR1 [1]; [4]): abolished | GC-IC-induced production of TNFα (C5aR1 [1]; [4]): abolished | GC-IC-induced production of CCL18 (C5aR1 [1]; CBE-treated U937 cells, GC-IC stimulation, ELISA, listed as C5aR antagonist A8^Δ71-73): marked reduction | MΦs, DC and T cells mediated immune inflammation (C5aR1 [1]; human model of Gaucher disease): significantly reduces | affinity to bind human C5aR1 (C5aR1 [2]): high affinity | C5a-induced effector functions [3]: inhibit | affinity to bind human C5aR2 (C5L2) (human C5aR2 (C5L2)): high affinity
